Measured values reported in article PMC8674358, “Decoding non-canonical mRNA decay by the endoplasmic-reticulum stress sensor IRE1α” (Nature Communications, 2021).

Target: the molecule itself
Assay: cross-linking; 1 μg IRE1-KR (~0.8 μM) or various concentrations in RNA cleavage buffer (20 mM HEPES pH 7.5, 50 mM K acetate, 1 mM Mg acetate, 0.05% Triton X-100), 250 μM DSS, 1 h on ice; SDS-PAGE and IRE1α immunoblot; also with CRUK-3 (5 µM), which augmented KR-0P dimerization and oligomerization

Protein | stoichiometry N
IRE1-KR-R887A, unphosphorylated (domain or fragment, human, UniProt O75460 547-977, looked up, IRE1α, human, kinase-endoribonuclease (KR) module, residues G547-L977, with R887A; also called unphosphorylated R887A; source: SF9 cells, purified in-house following the same procedure as IRE1α KR; not shown: His6, N-terminal, cleaved) GSSPSLEQDDGDEETSVVIVGKISFCPKDVLGHGAEGTIVYRGMFDNRDVAVKRILPECFSFADREVQLLRESDEHPNVIRYFCTEKDRQFQYIAIELCAATLQEYVEQKDFAHLGLEPITLLQQTTSGLAHLHSLNIVHRDLKPHNILISMPNAHGKIKAMISDFGLCKKLAVGRHSFSRRSGVPGTEGWIAPEMLSEDCKENPTYTVDIFSAGCVFYYVISEGSHPFGKSLQRQANILLGACSLDCLHPEKHEDVIARELIEKMIAMDPQKRPSAKHVLKHPFFWSLEKQLQFFQDVSDRIEKESLDGPIVKQLERGGRAVVKMDWRENITVPLQTDLAKFRTYKGGSVRDLLRAMRNKKHHYRELPAEVRETLGSLPDDFVCYFTSRFPHLLAHTYRAMELCSHERLFQPYYFHEPPEPQPPVTPDAL | 2
IRE1-KR-R887A, phosphorylated (domain or fragment, human, UniProt O75460 547-977, looked up, phosphorylated (allowed to autophosphorylate in the presence of ATP and MgCl2); sites not stated for this mutant, IRE1α, human, kinase-endoribonuclease (KR) module, residues G547-L977, with R887A; also called phosphorylated IRE1-KR-R887A; IRE1-KR-3P R887A; source: SF9 cells, purified in-house following the same procedure as IRE1α KR; autophosphorylated with 2 mM ATP and 10 mM MgCl2, then SEC; not shown: His6, N-terminal, cleaved) GSSPSLEQDDGDEETSVVIVGKISFCPKDVLGHGAEGTIVYRGMFDNRDVAVKRILPECFSFADREVQLLRESDEHPNVIRYFCTEKDRQFQYIAIELCAATLQEYVEQKDFAHLGLEPITLLQQTTSGLAHLHSLNIVHRDLKPHNILISMPNAHGKIKAMISDFGLCKKLAVGRHSFSRRSGVPGTEGWIAPEMLSEDCKENPTYTVDIFSAGCVFYYVISEGSHPFGKSLQRQANILLGACSLDCLHPEKHEDVIARELIEKMIAMDPQKRPSAKHVLKHPFFWSLEKQLQFFQDVSDRIEKESLDGPIVKQLERGGRAVVKMDWRENITVPLQTDLAKFRTYKGGSVRDLLRAMRNKKHHYRELPAEVRETLGSLPDDFVCYFTSRFPHLLAHTYRAMELCSHERLFQPYYFHEPPEPQPPVTPDAL | 2
